Earlier results as cited in patent US20210077665A1, “METHODS AND DEVICES FOR LYMPHATIC TARGETING” (priority 2005, published 2021).

Columns and labels:
[1] = at 44 h; pleural injection

For “111In-avidin: 111In labeled avidin injected in the pleural space (literature)”, the “uptake in mediastinal nodes” value [1] is given as 3.3%.

In the case of `CC(=O)O[C@H]1C(=O)[C@@]2(C)[C@H]([C@H](OC(=O)c3ccccc3)[C@]3(O)C[C@H](OC(=O)[C@H](O)[C@@H](NC(=O)c4ccccc4)c4ccccc4)C(C)=C1C3(C)C)[C@]1(OC(C)=O)CO[C@@H]1C[C@@H]2O` [Paclitaxel, paclitaxel], the IC50 (H460 lung cancer cells) is given as 5 nM.
